{"source": "the Immune Epitope Database (IEDB)", "key": {"HLA-A*26:02": {"target": "HLA-A*26:02", "assay": "IEDB peptide-MHC binding, purified MHC/competitive/fluorescence; filed as Kd, often an IC50 or EC50 that approximates it; ≥ and ≤ were set here for values at or beyond the usual limits of such assays", "conditions": "source organism: Bacillus anthracis str. A0488"}, "HLA-B*15:09": {"target": "HLA-B*15:09", "assay": "IEDB peptide-MHC binding, purified MHC/competitive/fluorescence; filed as Kd, often an IC50 or EC50 that approximates it; ≥ and ≤ were set here for values at or beyond the usual limits of such assays", "conditions": "source organism: Bacillus anthracis str. A0488"}, "HLA-B*39:01": {"target": "HLA-B*39:01", "assay": "IEDB peptide-MHC binding, purified MHC/competitive/fluorescence; filed as Kd, often an IC50 or EC50 that approximates it; ≥ and ≤ were set here for values at or beyond the usual limits of such assays", "conditions": "source organism: Bacillus anthracis str. A0488"}, "HLA-A*02:01": {"target": "HLA-A*02:01", "assay": "IEDB peptide-MHC binding, purified MHC/direct/fluorescence; filed as Kd, often an IC50 or EC50 that approximates it; ≥ and ≤ were set here for values at or beyond the usual limits of such assays", "conditions": "source organism: Bacillus anthracis"}, "HLA-B*35:01": {"target": "HLA-B*35:01", "assay": "IEDB peptide-MHC binding, purified MHC/direct/fluorescence; filed as Kd, often an IC50 or EC50 that approximates it; ≥ and ≤ were set here for values at or beyond the usual limits of such assays", "conditions": "source organism: Bacillus cereus 03BB108"}, "HLA-A*03:01": {"target": "HLA-A*03:01", "assay": "IEDB peptide-MHC binding, purified MHC/direct/fluorescence; filed as Kd, often an IC50 or EC50 that approximates it; ≥ and ≤ were set here for values at or beyond the usual limits of such assays", "conditions": "source organism: Bacillus anthracis"}, "HLA-B*15:01": {"target": "HLA-B*15:01", "assay": "IEDB peptide-MHC binding, purified MHC/direct/fluorescence; filed as Kd, often an IC50 or EC50 that approximates it; ≥ and ≤ were set here for values at or beyond the usual limits of such assays", "conditions": "source organism: Bacillus anthracis"}, "HLA-B*58:01": {"target": "HLA-B*58:01", "assay": "IEDB peptide-MHC binding, purified MHC/direct/fluorescence; filed as Kd, often an IC50 or EC50 that approximates it; ≥ and ≤ were set here for values at or beyond the usual limits of such assays", "conditions": "source organism: Bacillus anthracis"}, "HLA-A*69:01": {"target": "HLA-A*69:01", "assay": "IEDB peptide-MHC binding, purified MHC/direct/fluorescence; filed as Kd, often an IC50 or EC50 that approximates it; ≥ and ≤ were set here for values at or beyond the usual limits of such assays", "conditions": "source organism: Bacillus anthracis"}, "HLA-A*68:02": {"target": "HLA-A*68:02", "assay": "IEDB peptide-MHC binding, purified MHC/direct/fluorescence; filed as Kd, often an IC50 or EC50 that approximates it; ≥ and ≤ were set here for values at or beyond the usual limits of such assays", "conditions": "source organism: Bacillus anthracis"}, "HLA-B*46:01": {"target": "HLA-B*46:01", "assay": "IEDB peptide-MHC binding, purified MHC/direct/fluorescence; filed as Kd, often an IC50 or EC50 that approximates it; ≥ and ≤ were set here for values at or beyond the usual limits of such assays", "conditions": "source organism: Bacillus anthracis"}, "HLA-A*31:01": {"target": "HLA-A*31:01", "assay": "IEDB peptide-MHC binding, purified MHC/direct/fluorescence; filed as Kd, often an IC50 or EC50 that approximates it; ≥ and ≤ were set here for values at or beyond the usual limits of such assays", "conditions": "source organism: Bacillus anthracis"}, "HLA-A*11:01": {"target": "HLA-A*11:01", "assay": "IEDB peptide-MHC binding, purified MHC/direct/fluorescence; filed as Kd, often an IC50 or EC50 that approximates it; ≥ and ≤ were set here for values at or beyond the usual limits of such assays", "conditions": "source organism: Bacillus anthracis"}, "HLA-B*27:05": {"target": "HLA-B*27:05", "assay": "IEDB peptide-MHC binding, purified MHC/direct/fluorescence; filed as Kd, often an IC50 or EC50 that approximates it; ≥ and ≤ were set here for values at or beyond the usual limits of such assays", "conditions": "source organism: Bacillus anthracis"}, "HLA-B*57:01": {"target": "HLA-B*57:01", "assay": "IEDB peptide-MHC binding, purified MHC/direct/fluorescence; filed as Kd, often an IC50 or EC50 that approximates it; ≥ and ≤ were set here for values at or beyond the usual limits of such assays", "conditions": "source organism: Bacillus anthracis"}, "HLA-B*08:03": {"target": "HLA-B*08:03", "assay": "IEDB peptide-MHC binding, purified MHC/direct/fluorescence; filed as Kd, often an IC50 or EC50 that approximates it; ≥ and ≤ were set here for values at or beyond the usual limits of such assays", "conditions": "source organism: Bacillus cereus 03BB108"}, "HLA-B*15:17": {"target": "HLA-B*15:17", "assay": "IEDB peptide-MHC binding, purified MHC/direct/fluorescence; filed as Kd, often an IC50 or EC50 that approximates it; ≥ and ≤ were set here for values at or beyond the usual limits of such assays", "conditions": "source organism: Bacillus anthracis"}, "HLA-B*15:02": {"target": "HLA-B*15:02", "assay": "IEDB peptide-MHC binding, purified MHC/direct/fluorescence; filed as Kd, often an IC50 or EC50 that approximates it; ≥ and ≤ were set here for values at or beyond the usual limits of such assays", "conditions": "source organism: Bacillus cereus 03BB108"}, "HLA-A*01:01": {"target": "HLA-A*01:01", "assay": "IEDB peptide-MHC binding, purified MHC/direct/fluorescence; filed as Kd, often an IC50 or EC50 that approximates it; ≥ and ≤ were set here for values at or beyond the usual limits of such assays", "conditions": "source organism: Bacillus anthracis"}, "HLA-B*07:02": {"target": "HLA-B*07:02", "assay": "IEDB peptide-MHC binding, purified MHC/direct/fluorescence; filed as Kd, often an IC50 or EC50 that approximates it; ≥ and ≤ were set here for values at or beyond the usual limits of such assays", "conditions": "source organism: Bacillus anthracis"}, "HLA-A*26:01": {"target": "HLA-A*26:01", "assay": "IEDB peptide-MHC binding, purified MHC/direct/fluorescence; filed as Kd, often an IC50 or EC50 that approximates it; ≥ and ≤ were set here for values at or beyond the usual limits of such assays", "conditions": "source organism: Bacillus cereus 03BB108"}, "HLA-B*48:01": {"target": "HLA-B*48:01", "assay": "IEDB peptide-MHC binding, purified MHC/direct/fluorescence; filed as Kd, often an IC50 or EC50 that approximates it; ≥ and ≤ were set here for values at or beyond the usual limits of such assays", "conditions": "source organism: Bacillus anthracis"}}}
{"sequence": "SQMPPQKIM", "values": [{"measurement": "Kd", "setting": "HLA-A*26:02", "result": "≥ 20", "unit": "µM"}, {"measurement": "Kd", "setting": "HLA-B*15:09", "result": 0.283, "unit": "µM"}, {"measurement": "Kd", "setting": "HLA-B*39:01", "result": 3, "unit": "µM"}, {"measurement": "Kd", "setting": "HLA-A*02:01", "result": "≥ 20", "unit": "µM"}, {"measurement": "Kd", "setting": "HLA-B*35:01", "result": 0.661, "unit": "µM"}, {"measurement": "Kd", "setting": "HLA-A*03:01", "result": "≥ 20", "unit": "µM"}, {"measurement": "Kd", "setting": "HLA-B*15:01", "result": 0.125, "unit": "µM"}, {"measurement": "Kd", "setting": "HLA-B*58:01", "result": "≥ 20", "unit": "µM"}, {"measurement": "Kd", "setting": "HLA-A*69:01", "result": "≥ 20", "unit": "µM"}, {"measurement": "Kd", "setting": "HLA-A*68:02", "result": "≥ 20", "unit": "µM"}, {"measurement": "Kd", "setting": "HLA-B*46:01", "result": "≥ 20", "unit": "µM"}, {"measurement": "Kd", "setting": "HLA-A*31:01", "result": "≥ 20", "unit": "µM"}, {"measurement": "Kd", "setting": "HLA-A*11:01", "result": "≥ 20", "unit": "µM"}, {"measurement": "Kd", "setting": "HLA-B*27:05", "result": "≥ 20", "unit": "µM"}, {"measurement": "Kd", "setting": "HLA-B*57:01", "result": "≥ 20", "unit": "µM"}, {"measurement": "Kd", "setting": "HLA-B*08:03", "result": "≥ 20", "unit": "µM"}, {"measurement": "Kd", "setting": "HLA-B*15:17", "result": "≥ 20", "unit": "µM"}, {"measurement": "Kd", "setting": "HLA-B*15:02", "result": 0.022, "unit": "µM"}, {"measurement": "Kd", "setting": "HLA-A*01:01", "result": "≥ 20", "unit": "µM"}, {"measurement": "Kd", "setting": "HLA-B*07:02", "result": "≥ 20", "unit": "µM"}, {"measurement": "Kd", "setting": "HLA-A*26:01", "result": "≥ 20", "unit": "µM"}, {"measurement": "Kd", "setting": "HLA-B*48:01", "result": 3.67, "unit": "µM"}]}
